What all share (experiment): cell-based or functional assay
Test [1] concerns the target C-terminal HA tagged human Leptin receptor on LepR SIE-Bla cells (human) (UniProt P48357).
In test [2] the target is human LepR on Baf3 LepR cells (human) (UniProt P48357).
In test [3] the target is human FSHR on FSHR CRE-Bla cells (human) (UniProt P23945).
Sequence of human FSHR on FSHR CRE-Bla cells (human) (P23945 18-695): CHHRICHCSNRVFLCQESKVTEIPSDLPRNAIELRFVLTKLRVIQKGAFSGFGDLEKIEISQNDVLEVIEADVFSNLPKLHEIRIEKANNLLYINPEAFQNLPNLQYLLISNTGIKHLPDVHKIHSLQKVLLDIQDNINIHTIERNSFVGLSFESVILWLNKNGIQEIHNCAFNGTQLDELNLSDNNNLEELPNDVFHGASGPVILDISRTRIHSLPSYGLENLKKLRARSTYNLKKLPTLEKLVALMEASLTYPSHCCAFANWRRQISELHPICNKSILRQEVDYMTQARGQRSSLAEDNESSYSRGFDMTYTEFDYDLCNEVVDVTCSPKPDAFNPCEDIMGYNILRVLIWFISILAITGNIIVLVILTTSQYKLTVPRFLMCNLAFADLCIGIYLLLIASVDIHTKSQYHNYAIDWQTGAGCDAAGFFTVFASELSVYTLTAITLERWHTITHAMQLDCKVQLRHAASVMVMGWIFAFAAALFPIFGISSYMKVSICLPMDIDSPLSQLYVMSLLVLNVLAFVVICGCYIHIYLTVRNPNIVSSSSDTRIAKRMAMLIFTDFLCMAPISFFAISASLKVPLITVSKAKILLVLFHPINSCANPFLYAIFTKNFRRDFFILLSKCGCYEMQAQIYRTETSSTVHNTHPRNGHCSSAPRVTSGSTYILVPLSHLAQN

Sequence of C-terminal HA tagged human Leptin receptor on LepR SIE-Bla cells (human) (P48357 22-1165): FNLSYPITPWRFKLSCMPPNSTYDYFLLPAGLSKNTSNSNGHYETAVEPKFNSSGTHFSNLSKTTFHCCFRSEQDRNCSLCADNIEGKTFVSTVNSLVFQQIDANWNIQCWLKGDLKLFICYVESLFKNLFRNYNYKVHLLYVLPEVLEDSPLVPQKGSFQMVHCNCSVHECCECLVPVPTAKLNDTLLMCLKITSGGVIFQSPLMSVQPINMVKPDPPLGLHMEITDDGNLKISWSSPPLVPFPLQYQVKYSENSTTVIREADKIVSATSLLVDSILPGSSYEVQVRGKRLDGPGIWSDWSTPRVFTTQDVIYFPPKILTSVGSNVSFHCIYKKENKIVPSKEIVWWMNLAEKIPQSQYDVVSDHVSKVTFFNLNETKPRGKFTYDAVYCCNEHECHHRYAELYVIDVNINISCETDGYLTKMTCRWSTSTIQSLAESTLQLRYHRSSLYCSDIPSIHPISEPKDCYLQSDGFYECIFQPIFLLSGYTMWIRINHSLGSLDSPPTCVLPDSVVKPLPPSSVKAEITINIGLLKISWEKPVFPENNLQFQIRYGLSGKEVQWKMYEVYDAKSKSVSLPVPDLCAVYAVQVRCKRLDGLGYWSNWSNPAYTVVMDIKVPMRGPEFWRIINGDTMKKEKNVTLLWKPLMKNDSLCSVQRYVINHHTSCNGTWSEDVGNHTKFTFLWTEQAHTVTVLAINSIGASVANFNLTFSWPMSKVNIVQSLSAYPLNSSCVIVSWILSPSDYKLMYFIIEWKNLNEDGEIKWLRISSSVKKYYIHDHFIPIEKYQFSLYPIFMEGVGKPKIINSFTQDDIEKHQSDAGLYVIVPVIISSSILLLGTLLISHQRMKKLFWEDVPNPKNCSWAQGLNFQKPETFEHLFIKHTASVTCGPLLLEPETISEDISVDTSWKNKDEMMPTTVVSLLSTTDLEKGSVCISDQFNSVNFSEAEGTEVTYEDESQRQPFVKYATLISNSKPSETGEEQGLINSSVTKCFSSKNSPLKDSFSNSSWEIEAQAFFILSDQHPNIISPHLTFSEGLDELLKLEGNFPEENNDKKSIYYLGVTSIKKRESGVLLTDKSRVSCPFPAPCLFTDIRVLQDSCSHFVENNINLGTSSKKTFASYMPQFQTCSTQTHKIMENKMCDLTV
Sequence of human LepR on Baf3 LepR cells (human) (P48357 22-1165): as above

Take “recombinant human Leptin protein (from UniProt P41159 22-167) (ligand)”: in test [1], the EC50, FRET assay using the beta-lactamase-based LepR SIE-Bla cell line came out at 313 pM and the response ratio in a fluorescence resonance energy transfer (FRET) assay, LepR SIE-Bla cells worked out at 8.5. In test [2], this substance yielded an EC50, proliferation assay using the Baf3 LepR cell line of 310 pM.
As for “single chain FSH (from UniProt P01225 19-129; P01215 25-116) (ligand)”, the EC50, FRET assay using the beta-lactamase-based FSHR CRE-Bla cell line in test [3] came out at 5.7 pM.

The values above are taken from patent US20180298051A1.
